# Reference: PMC12365907, “https://orcid.org/0000-0002-7156-8846 Tungsirisurp Sireethorn Conceptualization Methodology Formal analysis Investigation Data curation Writing – original draft Writing – review & editing”
# Experiments:
# [1] = target: T1, SARS-CoV-2 spike receptor binding domain (RBD) (SARS-CoV-2, UniProt P0DTC2 319-541); assay: ELONA; details: protein: commercial; label: 5'-biotin
# [2] = target: T1, SARS-CoV-2 spike receptor binding …; assay: fluorescent strand displacement from beads; details: protein: commercial
Binder,Kd [1] [nM],binding result [2]
RBD-1 aptamer (ssDNA) DNA: CAGCACCGACCTTGTGCTTTGGGAGTGCTGGTCCAAGGGCGTTAATGGACA,4.58 ± 1.15,
RBD-1/CM antisense duplex (mixed) DNA 1: CAGCACCGACCTTGTGCTTTGGGAGTGCTGGTCCAAGGGCGTTAATGGACA DNA 2: GTCGGTGCTG,,binds
RBD-1/MM-T2 antisense duplex (mixed) DNA 1: CAGCACCGACCTTGTGCTTTGGGAGTGCTGGTCCAAGGGCGTTAATGGACA DNA 2: GACGGTGCTG,,binds
RBD-1/MM-T9 antisense duplex (mixed) DNA 1: CAGCACCGACCTTGTGCTTTGGGAGTGCTGGTCCAAGGGCGTTAATGGACA DNA 2: GTCGGTGCAG,,binds
